# B1: Rodent pegivirus (nucleic acid, listed as Pegivirus sp.)
# DNA: GGACTTCGGTCCCCCTGTTACTCTGCGAGCCACCGCAGAGCCAGGGTTGGTACGCCCGAGGTGTTAGACCCCGGCCGAAAGCTCCTAACCATGGGGTTAGTAGGACGTGGTAAATGCCACTGAGGGGTTGGAGAGCTGGTAGAGCGAGTAAGTCGGCGTAAGGCCCGAGTACGGGCCTCCCAGCCCGGGTCAGCCTAAACCTGGCTGTGATACCCGGTGCATGGAGGGCGTGTCCCAACGCTCGATCGCTGTAGGGTGGGTCCCTGCAGTTGGGTGTGGCTACCCTGCTCGTACTGCTTGATAGAGTCCCGGCGGACGGACCAGCTCTCGTCAGTCCGTGGAGTTGCAC
# modifications: lipid formulation
# B2: Sakobuvirus A FFUP1 (1x mut) (nucleic acid)
# DNA: TCACGCGCTTTTCCGGTGGTCACCCACCGTTAGGGAGCGCCAGCGTTCGCGCTTCCGCTACCAGGTGACACACTCCTTTCCCCTCCCCCATTCCCGTTCCCATCCTCTGGACTGGTTTCTCCTCACGATTGACCAGCAGCTGGGAGCTGTTACCAGACGTTGGACAGTAAGTCCCGGATGCACTATAGGGCTGGTGGCTAGTGCTTGGTAAGCACTCAACGCCATACCTAATGTGTACCTCGGCTTGCCCTCCTGGTCGTGGTGACCGGCTGTTTCTCTTCCCTTGGCTCCAGACGGGCTGGTGTCCTACCACCACCGTTGCATGCAGACCTCCCCCTGCGCACTCGAACGCCCTGTCCCAGCAGGGTTAGTATGTGCTGTGCAGATCTGCATGTGACACCCCATCCACTGGTAGAGCAGGAAGTTGCCCTAGCTAACGCGGCAAGTATTACTTTCCGCTACACGTCCTTGAGATTCCTCGGACCTCTGGAACTAGGGTGACTGTGGGCTTGGGAAAACCCACCTTGGTCCTGTACTGCCTGATAGGGTCGCGGCTGGCCGACCAGTGGATGTAGCCAGTTGTTTTGGGAT
# modifications: lipid formulation
# B3: GB virus C/Hepatitis G virus (nucleic acid)
# chain: CCCCCGGCACTGGGTGCAAGCCCCAGAAACCGACGCCTATCTAAGTAGACGCAATGACTCGGCGCCGACTCGGCGACCGGCCAAAAGGTGGTGGATGGGTGATGACAGGGTTGGTAGGTCGTAAATCCCGGTCACCTTGGTAGCCACTATAGGTGGGTCTTAAGAGAAGGTTAAGATTCCTCTTGTGCCTGCGGCGAGACCGCGCACGGTCCACAGGTGTTGGCCCTACCGGTGGGAATAAGGGCCCGACGTCAGGCTCGTCGTTAAACCGAGCCCGTTACCCACCTGGGCAAACGACGCCCACGTACGGTCCACGTCGCCCTTCAATGTCTCTCTTGACCAATAGGCGTAGCCGGCGAGTTGACAAGGACCAGTGGGGGCCGGGGGCTTGGAGAGGGACTCCAAGTCCCGCCCTTCCCGGTGGGCCGGGAAATGC
# modifications: lipid formulation; source: /note="Description of Unknown: GB virus C/Hepatitis G virus sequence"
# B4: Antarctic penguin virus A (nucleic acid)
# DNA: CTAGGAGACTACGCAGTGGGATAAGATGACTATGATGTCGTACGGGCAGAAGCCAGTACAGTCGAAGTCGAGACCGACGTCGAGGATTTGACTCTGCCTGACCTAGTGCCATC
# modifications: chemistry not fully specified; the letters are possibly those of the target site
# B5: Equine hepacivirus (nucleic acid, listed as Hepacivirus sp.)
# chain: ACCTCCGTGCTATGCACGGTGCGTTGTCAGCGTTTTGCGCTTGCATGCGCTACACGCGTCGTCCAACGCGGAGGGATTCTTCCACATTACCATGTGTCACTCCCCCTATGGAGGGTTCCACCCCGCCCACACGGAAATAGGTTAACCATACCTATAGTACGGGTGAGCGGGTCCTCCTAGGGCCCCCCCGGCAGGTCGAGGGAGCTGAAATTCGTGAATCCGTGAGTACACGGAAATCGCGGCTTGAACGTCATACGTGACCTTCGGAGCCGAAATTTGGGCGTGCCCCACGAAGGAAGGCGGGGGCGGTGTTGGGCCGCCGCCCCCTTTATCCCACGGTCTGATAGGATGCTTGCGAGGGCACCTGCCGGTCTCGTAGACCATAGGAC
# modifications: lipid formulation
# B6: Theiler's disease-associated virus (nucleic acid)
# DNA: TGATACCGTGTCCCGGTACGACCTCGCGCGTCCCCAAGCTCGCCCTGAGGGGGGAGCGTAAGGGCGCGTAGTGGGGTAGCCCCCCAAACCGAGCCACCCTAGTGAGTGACTTTAGAATGGTTAGGGAGACTACCGCCTTCGCTGTTTGGGGACCTAATGATCCGCGTGCCAGGGTTCTTCGGGTAAATCCCGGCGCGGTGTTTTGGGTTCAGGGCAGTAGGGGCAGACGGGCCAGCAGTCGCTGGTTCCTGGTACCACCACCCTATCCGGACGACCTCCCTCACGAAAGGTCGCCACGGTCTGTGGCTCGACGACGCCTATAATTCAGTCCGAGGGGCGCAGCCCTCGTTAAACTTAGGCAAGGTTCCTCGCCATTGATTTGGCCAGGGGTTTAAGTGAACGCCGCCCTTTTAATGTTTAATAGGGTTCTTTCCCGGCGGGTTGACAAACACTTCCCTGGGCTCTTCGTTGGCCTCGGTTCCTTGATGCTTCGGCACCCATGAGCGCACAGGGGGGGGACCCTGCGACAGTCCGCCAAGAGGAAAATCCTTCGGGTGACCTCGTGCGCAACCCAATCCCTTCTTCTTCCACATGGCGTGTCTGTGGTGCATGCTGTG
# modifications: lipid formulation; source: /note="Description of Unknown: Theiler's disease-associated virus sequence"
# B7: Human pegivirus 2: "an IRES is an IRES sequence of ... Human Pegivirus 2" (nucleic acid, listed as Pegivirus sp.)
# DNA: AACTGTTGTTGTAGCAATGCGCATATTGCTACTTCGGTACGCCTAATTGGTAGGCGCCCGGCCGACCGGCCCCGCAAGGGCCTAGTAGGACGTGTGACAATGCCATGAGGGATCATGACACTGGGGTGAGCGGAGGCAGCACCGAAGTCGGGTGAACTCGACTCCCAGTGCGACCACCTGGCTTGGTCGTTCATGGAGGGCATGCCCACGGGAACGCTGATCGTGCAAAGGGATGGGTCCCTGCACTGGTGCCATGCGCGGCACCACTCCGTACAGCCTGATAGGGTGGCGGCGGGCCCCCCCAGTGTGACGTCCGTGGAGCGCAAC
# B8: Icavirus (nucleic acid)
# DNA: CGAAGTTTAAGCTAAGCACCCTCGGGCGTTCCCGGATTATGTGATCACATCAATTTGATGGCTGGTCACCACGCAACGCCTGGAGAGATACTCTTACTTTTCTCTTAAGATCCCCGGTCATTTGACGCTTGTAGGATGATAGGGTTATTTTCCACTATAAATACTTTCATACTCTTGGATGTTCTATATCCAAGACGGGAGGACCTACCCCGTACCCCTTAGAGGTGAGATGCCAAGAACAGGCCCTTTCTGTTCTCTCGACAATGGCATCATAGGCAACAAGCATCACACCAAGATTGCTAAGTTTTGTTAAGAGTTCTTCAAGCTATAGGGTGGCTGTAGCGACCTTCTGATGCCTGCGGATTTCCCCACGGAGCGATCCGTGCCACAGGGGCCAAAAGCCACGGCTAACGCCCATCAGGAGCGGCACTTACCCCGTGCCCCACCCTTGAAACTTGAATGTTCACACTGGCTTCTCTCGGCTTTCTGAACTGTCTGCTTGTTGGGGCCCCGAAGGATGCCCTGGAGGTACCCCATTTTATGGGATCTGACCAGGGGACACCTCAGCTCTCTAAGTTGCTGGTGTTTAAAAAACGTCTAAGGGCCCCCACCCCTTAGGTGGAGGGATCCACCTTTCCTTTATTTTTTAAAACTCTTTTATGGTCACAATTGTTT
# modifications: source: /note="Description of Unknown: Icavirus sequence"
# B9: Pegivirus K (nucleic acid)
# DNA: AGAATGGTGTGATCCGTCGCCGCTCCAGCGGAAAGCGGGCGGGATCTAGTGGTTAGGGTTGTTCGCGTAAATCCCACACTAGTGGTACGCTCGTATAACGTGGGAGCAGCCGGTGGGGTCGACCCCCCACCTGGCGGCTGCTGAGCACCGGACGAAGCGCGGGGGGTGAACGCTAACCCGCGGCCCGGGCTGCCAACGTTAGGCACGTCTTGGCTGGAAGACGTTAAACACAGGGCCCCCCCTCAACCCTGATCCGAGGCCAGAGACCAAGGTACGCCGCCCTTTTAAAGGCGTTACTCGTCCAATAGGATCTCTCCGGCGGGTTGTCAAACCTTGCTGGCCCTGGTGATGGTTACGGGAGGGGGTGGGGCGGGGAGTAGAAGCCCCGCCCGGCATGGGGGTACCAAGCTCGGCACGCCCAGCACGCGTGGCGTAGGGGAAAAATCCTTCGGGTGACCCCTGGTACCATAAAGTAATTAACATGAGCATGCCGCTAGGGTGTGCTTTTTCTTCCTTCCTTGGGAAGGCGGTGGCACC
# modifications: lipid formulation; Pegivirus K
# B10: Zika Virus (nucleic acid, listed as Zika virus)
# DNA: AGTTGTTGATCTGTGTGAGTCAGACTGCGACAGTTCGAGTCTGAAGCGAGAGCTAACAACAGTATCAACAGGTTTAATTTGGATTTGGAAACGAGAGTTTCTGGTC
# modifications: chemistry not fully specified; the letters are possibly those of the target site
# B11: Hepacivirus B (nucleic acid)
# DNA: ACCACAAACACTCCAGTTTGTTACACTCCGCTAGGAATGCTCCTGGAGCACCCCCCCTAGCAGGGCGTGGGGGATTTCCCCTGCCCGTCTGCAGAAGGGTGGAGCCAACCACCTTAGTATGTAGGCGGCGGGACTCATGACGCTCGCGTGATGACAAGCGCCAAGCTTGACTTGGATGGCCCTGATGGGCGTTCATGGGTTCGGTGGTGGTGGCGCTTTAGGCAGCCTCCACGCCCACCACCTCCCAGATAGAGCGGCGGCACTGTAGGGAAGACCGGGGACCGGTCACTACCAAGGACGCAGACCTCTTTTTGAGTATCACGCCTCCGGAAGTAGTTGGGCAAGCCCACCTATATGTGTTGGGATGGTTGGGGTTAGCCATCCATACCGTACTGCCTGATAGGGTCCTTGCGAGGGGATCTGGGAGTCTCGTAGACCGTAGCAC
# modifications: Hepacivirus B
# B12: Yokose virus (nucleic acid, listed as Yokose virus)
# DNA: AGTAAATTTTGCGTGCTAGTCGCTGAGCGTCAGACCGCAAAGTGAGTTTTTAGTGATCTAAAGTGAGGAGTTATTCTTACTGTCATCAAACACTACAAATAAACACGTTGAAATTATTTCCGGAAGAACAACTGTCCGGAATCAAAGACG
# modifications: lipid formulation
# Tested on: HEK293 cells
# Assay type: cell-based, human
# Conditions: circular RNA encoding Gluc with the listed IRES (UTR truncated to 675 nt) transfected into HEK293 cells; supernatant after 24 hours
row,Molecule,Expression (luminescence from secreted Gluc protein)
1,B1,1.79E+05
2,B2,8.82E+06
3,B3,1.36E+05
4,B4,8.42E+04
5,B5,8.40E+04
6,B6,7.84E+04
7,B7,3.14E+05
8,B8,4.41E+06
9,B9,8.07E+04
10,B10,8.61E+04
11,B11,8.84E+04
12,B12,8.55E+04

# From patent US20240245805A1 (Orna Therapeutics, Inc., priority 2020, published 2024)
